System: Bca DNA polymerase
Details: unmodified dCTP; 39 units/µl with dCTPalphaS, 40-50 with dCTPalphaBH3; 4 mM Mg, 60 C

activated calf thymus DNA gave an activity of 152 units/µl.

From US5702926
